Measurements as given in the nanobody polyreactivity screen of Harvey et al. (2022).

Test: yeast display, Sf9 membrane polyspecificity reagent, FACS + sequencing; frameworks hold sequencing errors
Summary of the method: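 Using colony PCR, genes from sorted yeast display clones were amplified, then sequenced on MiSeq at 2 × 250 and filtered by CDR length. The clones had been stained with 10% biotinylated, detergent-solubilized Sf9 membrane reagent for 1 hour at 4 °C and sorted by FACS into low and high (top ~1%) gates on anti-HA and streptavidin fluorescence. Polyreactivity labels come from the gate of origin.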

| Sequence | polyreactivity (PSR sort gate) |
| --- | --- |
| QVQHVESGGGLVQAGGSLRLSCAASGRTFYRYAMGWSRQAPGKERELVASINRGGSTNYADSVKGRFTISRDNAKNTVYLQMNSLKPEDTAVYYCNADGYQAASRVYRRPKRYYSWGQGTQVTVSS | low polyreactivity |
| QVQLVESGGGLVQAGGSLRLSCAASGRTYHAYAMGWYRQAPGKGRELVAAITRTGTTHYADSVKGRFTISRDNAKNTVYLQMNSLKPEETAVYYCNKATQFYQWGASPYYPRRDYWGQGTQVTVSS | low polyreactivity |
| QVQLVESVGGVVQAGGSLRLSCAASGRIFDRNAKGWYSQAPGKERELVAAITSGGSTNYADSVKGRFTISRDNAKNTVYLQMNSLKPEDTAVYYCANDFTSRYAPPEAYDYWGQGTQVTVSS | low polyreactivity |
| QVQLVESGGGLFQAGGSLRISCAASGITFYGNAMGWYRQAPGKERELDATISSGGGTNYADSVKGRFTISRDNAKNTVYLQMNSLKPEDTAVYYCATDLSTVDYNYWGQGTQVTVSS | low polyreactivity |
| QVQLVESGGGLVQAGGSLRLSCAPSGFIFQANAMGWYRQAPGKERELLAAIDDGDSTYADSVKGRFTISRDNAKNTVYLQLNSLKPEDTAVYFCATRRNRSYDYWGQGTQVTVSS | low polyreactivity |
| QVQLVDSGGGLVQAGGSLRLSCAASGRIFYRYALGWYRQAPGKERELVAAITRGGRTNYADSVKGRFTISRDNAQNTVYLQMNSLKPEDTAVYYCRPLWYGFDYWGQGTQVTVSS | high polyreactivity |
| QVQLVESGGGLVQAGGSLRLSCAASGFTFVSYAMGWYRQAPGKERELVAAISSRVVSTYYADSVKGRFTISRDNAKNTVYLQMNSLKPEDTAVYYCATDRYAYKLYDYWGQGTQVTVSS | low polyreactivity |
| QVQLVESGGGLVQAGGSLRLSCAASGFIFGTYAMGWYRQAPGKERELVAAISVGGGSTYYADSVKGRFTISRDNAKNTVYLQMNSLKPEDTAVYYCAAVQLYQKHQITYVAHEYWGQGTQVTVSS | low polyreactivity |
| QVQLVESGGGLVQAGGSLRLSCAASGSTFRWYTMGWYRQAPGKERELVAAITASGGSTFYADSVKGRFTISRDNAKNTVYLQMNSLKPEDTAVYYCAAVNRPRPRRSDYWGQGTQVTVSS | high polyreactivity |
| QVQLVESGGGLVKAGGSLRLSCAASGRIFYWYALGWYRQAPGKEREFVAVISQGGGSTRYADSVKGRFTISRDNAKNTVYLHMNSLKPEDTAVYYCAASHSRWRQGYGYWGQGTQVTVSS | high polyreactivity |
| QVQLVESGGGLVQAGGSLRLRCAASGFTFPSYPMGWYRQAPGKEREVVAAISQRGGSTYYADSEKGRFTISRDNAKHTVYLQLNSLKPEDTAVYYCAALAPRTGRPTYGYWGQGTQVTVSS | low polyreactivity |
| QVQLVESGAGIVQAGGSLRLSCAASGRIFSDYTMGWYRQAPGKERELVAAIDWSGGNTYYADSVKGRFTISRDNAKNTVYLQMNSLKPEDTAVYYCNADWTYPSAEREYWGQGTQVTVSS | low polyreactivity |
| QVQLVESGGGLVQAGGSLRLSCAASGSTFFNNAMGWYRQAPGKERELVAAITGGGGRTYYADSVKGRFTISRDNAKNTVYLQMNSLKPEDTAVYYCAAVPRRSYGGYPYYYWGQGTQVTVSS | low polyreactivity |
| QVQLVESGGGLVQAGGSLRLSCAASGRIFSTNAMGWYRQAPGKERELVARINSGGGSTYADSVKGRFTISRDNAKNTVYLQMNSLKPEDTAVYYCAASRRFQWRAYGYWGQGTQVTVSS | high polyreactivity |
| QFQLQESGGGLVQAGGTLRLSCAASGSIFYVYGKGWYRQAPGKERELVAGINAGTNTNYADSVRGRFTISRDNAKNTVHLQMNSQKPVDTAVYYCAADGNGYQAHEYWGQGTQVTVSS | high polyreactivity |
| QVQLVESGGGLVQAGGILRLSCAASGRIIRSYAMGWYRHAPGKERELVAAITSGGSTNYADSVKGRFTISRDNANNTVYLQMNSLKPEDTAVYYCAARWPWYGKLRYYYWGQGTQVTVSS | high polyreactivity |
| QVQLVESGGGLVQAGGSLRLSCAASGSTFWSYAMGWYRQAPGKERELVAAISYRGTRTRYADSVKGRFTISRDNAKNTVYLQMNSLKPEDTAVYYCAADRTFYGIRFDYWGQGTQVTVSS | high polyreactivity |
| QVQLVESGGGLVQAGGSLRLSCAASGYTFAPYVMGWYRQAPGKERELVARISNNGGSKYYADSVKGRFTISRDNAKNTFYLQMNSLKPEDTAVYYCAADVGLIYFRYYYCGQGTQVTVSS | low polyreactivity |
| QVQLVESGGGLVQAGGSLRLSCAASGLIFSVYVMGWYRQAPGKERELVAGITTGGSTKYADSVKGRFTISRDNAKNTVYLQMNSLKPEDTSVYYCAVGKYNYRGSWDYYWGQGTQVTVSS | high polyreactivity |
| QVQLVESGGGLVQAGGSLRLSCAASGFIFTRYAMGWYRQAPGKERELVAAITRSGGRTYYADSVKGRFTISRDNAKNTVYLQMNSLKPEDTAVYYCAAEGSVGLYGLIMHYWGQGTQVTVSS | high polyreactivity |
| QVQLVESGGGLVQAGGSLRLSCAASGLTFKSYAMGWYRQAPGKERELVAVISSSGGRTYYADSVKGRFTISRDNAKNTVYLQMNSLKPEDTAVYYCAADGSYGKWGGHAMYYWGQGTQVTVSS | high polyreactivity |

| Sequence | polyreactivity (PSR sort gate) |
| --- | --- |
| QVQLVESGGGLVQAGGSLRLSCAASGFTFYSNAMGWYRQAPGKERELVAAISGSGGRTYYADSVKGRFTISRDNAKNTVYLQMNSLKPEDTAVYYCAAKFTTGYYYGVPRDYWGQGTQVTVSS | high polyreactivity |
| QVQLVESGGGLVQAGGSLRLSCAASGSTLRTYAMGWYRQAPGKERELVAAISFSTTSTYYADSVKGRFTISRDNAKNTVYLQMNSLKPEDTAVYYCAAEYWYYWEYEYWGQGTQVTVSS | high polyreactivity |
| QVQLVESGGGLVQAGGSLRLSCAASGNILLFNAMGWYRQAPGKERELVATINQSGGRTYYADSVKGRFTISRDNAKNTVYLQMNSLKPEDTAVYYCAATRRYPPYFHHYDYWGQGTQVTVSS | low polyreactivity |
| QVQLVESGGGLVQAGRSLRLTCAASGSIFYYYAMGWYRQAPGNERELVAAISSGGRTYYADSVKGRFTISRENANNNVYLQMKSLKTEDTAVYYCAASGGSYSVGRYYYWGQGSQVTVSS | high polyreactivity |
| QVQLVESGGGLVQAGGSLRLSCAASGRTFRGYSMGWYRQAPGKERELVAAISSSGGRTYYADSVKGRFTISRDNAKNTVYLQMNSLKPEDTAVYYCNAYYWSATWYFAAWDYYYWGQGTQVTVSS | high polyreactivity |
| QVQLVESGGGLVQAGGSLRLSCAASGFTFARNAMGWYRQATGKERELVASITQRGGSTNYADSVKVRFTISRDNAQNTVYLQMNSLKPEDTAVYYCNKASQLYYIQGTYSYGYWGQGTQVTVSS | low polyreactivity |
| QVQLVESGGGLVQAGGSLRLSCAASGRIFGVNAMGWYRQAPGKERELVAGISISGGSTHYADSVKGRFTISRDNAKNTVYLQMNSLKPEDTAVYYCAKRFYKYVSYWHDYWGQGTQVTVSS | low polyreactivity |
| QVQLVESGGGLVQAGGSLRLSCAASGSIFGGYPMGWYRQAPGKERELVAAITYSAGNTYYADSVKGRFTISRDNAKNTFYVQMNSLKPEDTAVYYCNAVTKHRAITNMDYWGQGTQVTVSS | high polyreactivity |
| QVQLVESGGGLGQAGGSLRLSCAASGRTVYYNGMGWYRPAPGKEREVVAAITSGGTTSYADSVKGRFTISRDNAKNTVYLQMISLKPEETAVYYSNADYWAVNYDYWGQGTQVTVSS | low polyreactivity |
| QVQLVESGGGLVQAGGSLRLSCAASGYIFEYYAMGWYRQAPGKDRELVAAISWSGGSTYYADSVKGRFTISRDNAKNTVYLQMNSLKPEDTAVYYCAAESYLPYWDSYYRYDYWGQGTQVTVSS | low polyreactivity |
| QVQLVESGGGLVQAGGSLRLSCAASGIIFRSYAMGWYRQAPGKERELVAAISRRGGSTYYADSVKGRFTISRDNAKNTVYLQMNSLKPEDTAVYYCAATVLSSPEPYDYWGQGTQVTVSS | high polyreactivity |
| QVQLVESGGCLVQAGGSLRLSCVASGRTFRRYAMGWYRQAPGKERELLSTITLNGGSTYYADSVKGRFTISRDNATNTVDLQMNSLKPEDTAVYDCKRCTNVVRRGVYSFGYDYWGEGTQVTVSS | low polyreactivity |
| QVQLVESGGGLVQAGGSLRLSCAASGFTFNYYAMGWSRQAPGKERELVAAITWDGGTTYYADSVKGRFTISRDNAKNTVYLQMNSLKPEDSAVYYCAADYAWVSIYDNVPSAPGYDYWGQGTQVTVSS | low polyreactivity |
| QVQLVESGGGLDPAGGSLRLSCAASGITFSYYAMGWYRQAPGKERELVAAISSSGSTYYADSVKGRFTISRDNAKNTDYLQMNSLKPEDTAVYYCAAEIRYYEYDYWGQGTQVTVSS | low polyreactivity |
| QVQLVDSGGGLVQAGGSLRLSCAASGSISYYNAMGWYRQAPGKERELVATITDSGGSTYYADSVKGRFTISRDNAKNTVYLQMNSLKPEDTAVYYCAVDYSEWYSIYDYWGQGTQVTVSS | low polyreactivity |
| QVQLVESGGGLVQAGGSLRLSCAASGSTFGFYAMGWYRQAPGKERELVAAITSGDITYADSVKGRFTISRDNAKNTVYLQMNSLKPEDTAVYYCAASGPYSYDWGQGTQVTVSS | low polyreactivity |
| QVQLVESGGGLVQAGGSLRLSCAASGSNFDDNAMGWYRQAPGKERELVAAINSTDITNYADSVKGRFTISRDNAKNTVYLQMTSLKPEDTAVYYCNVDDWGQGTQVTVSS | low polyreactivity |
| QVQLVESGGGLVQAGGSLRLSCAASGITFDLYAMGWFRQAPGKERELVAAISISSTSTYYADSVKGRFTISRDNAKNTVYLQMNSLKPEDTAVYYCNAVPSSKTFWFDYWGQGTQVTVSS | low polyreactivity |
| QVQLVESGGGLVQAGGSLRLSCAASGRIFGNYAMGWYRQAPGKERELVAAISGGGSTYYADSVKGRFTISRDKAKNTVYLQMNSLKPEDTAVYYCAARFLWSVFGRKGGYWGQGTQVTVSS | low polyreactivity |
| QVQLVESGGGLVQAGGSLRLSCAASGGIFTGYAMGWYRQAPGKERELVASITISGGRTYYADSVKGRFTISRDNAKNTVYLQINSLKPEDTAVYYCAATIPWYKYRYYYWGQGTQVTVSS | high polyreactivity |
